Measured values: the supplement of paper PMC7125110
± gives the standard error. For part of these data: Variants at the floor of the assay were thinned out.

B1: glmS ribozyme (parent)
chain: AUAAAAGCGCCAGAACUACAGAAAUGUAGUUGACGAGGAGGAGGUUUAUCGAAUUUUCGGCGGAUGCCUCCAAA

How the values were obtained:
Details in all cases: with glucosamine-6-phosphate
[1] = variants of: B1; assay: kcat; higher = faster cleavage; RNA array
Procedure, shortened: (§1)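 Glucosamine-6-phosphate (40 μM to 10 mM) in HEPES/KCl/Mg(OAc)2 buffer was flowed over sequenced MiSeq chips, and tiles were imaged over ~14 h. Barcoded ribozyme variants there had been transcribed in situ by E. coli RNA polymerase and were tracked through a hybridised Cy3 probe at 37 °C. One- or two-exponential decay fits to per-tile medians, normalised to baseline and to non-cleaving reference variants, gave kobs. kcat and KM came from weighted Michaelis–Menten fits across concentrations.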

[2] = variants of: B1; assay: self-cleavage kobs at 2500 uM GlcN6P; higher = faster cleavage; RNA array
Procedure, shortened: as §1

[3] = variants of: B1; assay: self-cleavage kobs at 10000 uM GlcN6P; higher = faster cleavage; RNA array
Procedure, shortened: as §1

[4] = variants of: B1; assay: self-cleavage kobs at 40 uM GlcN6P; higher = faster cleavage; RNA array
Procedure, shortened: as §1

[5] = variants of: B1; assay: self-cleavage kobs at 160 uM GlcN6P; higher = faster cleavage; RNA array
Procedure, shortened: as §1

[6] = variants of: B1; assay: self-cleavage kobs at 640 uM GlcN6P; higher = faster cleavage; RNA array
Procedure, shortened: as §1

[7] = variants of: B1; assay: KM; higher = weaker cofactor use; RNA array
Procedure, shortened: as §1

Row | Variant | kcat [1] | self-cleavage kobs at 2500 uM GlcN6P [2] | self-cleavage kobs at 10000 uM GlcN6P [3] | self-cleavage kobs at 40 uM GlcN6P [4] | self-cleavage kobs at 160 uM GlcN6P [5] | self-cleavage kobs at 640 uM GlcN6P [6] | KM [7]
1 | A39G G59A | 0.000106 ± 2.1e-05 s⁻¹ | 7.4e-05 ± 1.8e-05 s⁻¹ | 8.4e-05 ± 1.1e-05 s⁻¹ | – | – | – | –
2 | A39G C70U C71U | 0.000401 ± 9.5e-05 s⁻¹ | 0.000283 ± 8.9e-05 s⁻¹ | 0.000785 ± 0.00024 s⁻¹ | 0.000107 ± 2.7e-05 s⁻¹ | 0.000403 ± 0.00018 s⁻¹ | 0.000383 ± 8.4e-05 s⁻¹ | –
3 | A39G G44U | 0.00229 ± 0.0007 s⁻¹ | 0.000853 ± 0.00022 s⁻¹ | 0.00136 ± 0.00023 s⁻¹ | – | – | 0.000198 ± 5e-05 s⁻¹ | 6340 ± 3000 µM
4 | A39G G44C | 0.000507 ± 6.5e-05 s⁻¹ | 0.000327 ± 6.4e-05 s⁻¹ | 0.000394 ± 4.8e-05 s⁻¹ | – | – | 0.000101 ± 1.9e-05 s⁻¹ | 2450 ± 660 µM
5 | A39G G43U | 0.000168 ± 1e-05 s⁻¹ | 0.000119 ± 3.3e-05 s⁻¹ | 0.000149 ± 2.2e-05 s⁻¹ | – | – | 5.98e-05 ± 1.8e-05 s⁻¹ | 1170 ± 240 µM
6 | A39U U57C | 0.00022 ± 2.2e-05 s⁻¹ | 4.56e-05 ± 8.7e-06 s⁻¹ | 0.000111 ± 2.2e-05 s⁻¹ | – | – | – | 9720 ± 1500 µM
7 | G37A A52U | 5.16e-05 ± 5.1e-06 s⁻¹ | – | 3.07e-05 ± 8.4e-06 s⁻¹ | – | < 1e-05 s⁻¹ | – | 6790 ± 1600 µM
8 | G38C C67A | < 1e-05 s⁻¹ | – | – | < 1e-05 s⁻¹ | < 1e-05 s⁻¹ | – | –
9 | A36C U55A | < 1e-05 s⁻¹ | – | – | – | < 1e-05 s⁻¹ | – | –
10 | G38A C71A | < 1e-05 s⁻¹ | – | < 1e-05 s⁻¹ | – | – | – | –
11 | G41C U56A | 0.000159 ± 4.4e-05 s⁻¹ | 0.000129 ± 3e-05 s⁻¹ | 0.000121 ± 1.5e-05 s⁻¹ | – | – | 2.18e-05 ± 1e-05 s⁻¹ | –
12 | G40U U47A | 0.00153 ± 0.00048 s⁻¹ | 0.00134 ± 0.00045 s⁻¹ | 0.00115 ± 0.00037 s⁻¹ | 6.16e-05 ± 2.8e-05 s⁻¹ | 0.000114 ± 2.9e-05 s⁻¹ | 0.000565 ± 0.0002 s⁻¹ | 1680 ± 730 µM
13 | A39U G60A | 2.79e-05 ± 2e-06 s⁻¹ | – | – | – | < 1e-05 s⁻¹ | – | 5820 ± 1100 µM
14 | G40U U46C | 0.00175 ± 0.00024 s⁻¹ | 0.000971 ± 0.00014 s⁻¹ | 0.00137 ± 0.00016 s⁻¹ | 4.23e-05 ± 1.1e-05 s⁻¹ | 9.14e-05 ± 1.9e-05 s⁻¹ | 0.000365 ± 5e-05 s⁻¹ | 2420 ± 530 µM
15 | G40C A48U | 0.000238 ± 7.3e-05 s⁻¹ | – | 5.01e-05 ± 8.4e-06 s⁻¹ | < 1e-05 s⁻¹ | < 1e-05 s⁻¹ | – | –
16 | G38C C50U C61G | < 1e-05 s⁻¹ | – | – | – | – | < 1e-05 s⁻¹ | –
17 | A39C U69C | 0.000195 ± 3.5e-05 s⁻¹ | 0.000211 ± 3.5e-05 s⁻¹ | 0.000166 ± 1.9e-05 s⁻¹ | – | – | 6.94e-05 ± 1.8e-05 s⁻¹ | –
18 | G40U U45A | 0.0022 ± 0.00057 s⁻¹ | 0.00235 ± 0.00023 s⁻¹ | 0.00154 ± 0.00024 s⁻¹ | 8.3e-05 ± 1.1e-05 s⁻¹ | 0.000265 ± 4.2e-05 s⁻¹ | 0.00081 ± 0.0001 s⁻¹ | 1030 ± 420 µM
19 | G37C A52G | < 1e-05 s⁻¹ | – | – | < 1e-05 s⁻¹ | – | – | –

Row | Variant | kcat [1] | self-cleavage kobs at 2500 uM GlcN6P [2] | self-cleavage kobs at 10000 uM GlcN6P [3] | self-cleavage kobs at 40 uM GlcN6P [4] | self-cleavage kobs at 160 uM GlcN6P [5] | self-cleavage kobs at 640 uM GlcN6P [6] | KM [7]
20 | G38A C67A | < 1e-05 s⁻¹ | – | – | < 1e-05 s⁻¹ | – | – | –
21 | G40A G66U | 0.000238 ± 1.9e-05 s⁻¹ | 0.000124 ± 2e-05 s⁻¹ | 0.000203 ± 3.5e-05 s⁻¹ | – | – | 6.02e-05 ± 1.2e-05 s⁻¹ | 2050 ± 330 µM
22 | G38A U65A | < 1e-05 s⁻¹ | – | – | – | – | – | –
23 | G41C U54C | 0.000229 ± 4e-05 s⁻¹ | 0.000162 ± 3.3e-05 s⁻¹ | 0.000204 ± 2.4e-05 s⁻¹ | – | – | 0.000132 ± 2.8e-05 s⁻¹ | –
24 | G37A U65G | 0.000263 ± 1.3e-05 s⁻¹ | 0.000102 ± 1.2e-05 s⁻¹ | 0.000191 ± 2.3e-05 s⁻¹ | – | – | 4.13e-05 ± 1.5e-05 s⁻¹ | 3870 ± 390 µM
25 | A39U G41C | 2.16e-05 ± 4.5e-07 s⁻¹ | – | 1.93e-05 ± 7.7e-06 s⁻¹ | < 1e-05 s⁻¹ | – | – | 1200 ± 150 µM
26 | G41C A64G | 0.000146 ± 1.2e-05 s⁻¹ | 0.000107 ± 1.8e-05 s⁻¹ | 0.000122 ± 8.8e-06 s⁻¹ | – | – | 3.48e-05 ± 8.4e-06 s⁻¹ | 1760 ± 510 µM
27 | A36G A64G | 2.02e-05 ± 1.1e-06 s⁻¹ | – | – | < 1e-05 s⁻¹ | < 1e-05 s⁻¹ | – | –
28 | A42C G66A | 0.000322 ± 2.8e-05 s⁻¹ | 0.000208 ± 2.9e-05 s⁻¹ | 0.000305 ± 4.2e-05 s⁻¹ | – | – | 0.000125 ± 1.5e-05 s⁻¹ | 1090 ± 210 µM
29 | G41U C58A | 1.21e-05 ± 4e-06 s⁻¹ | – | – | – | – | – | –
30 | A39G U54A | 0.0133 ± 0.0029 s⁻¹ | – | 0.018 ± 0.0076 s⁻¹ | 0.00173 ± 0.00037 s⁻¹ | – | 0.00823 ± 0.0019 s⁻¹ | 282 ± 100 µM
31 | G37U C70G | 2.07e-05 ± 8.5e-06 s⁻¹ | – | – | – | – | – | –
32 | G38U U65A | < 1e-05 s⁻¹ | – | – | – | < 1e-05 s⁻¹ | – | –
33 | G38U U55G | < 1e-05 s⁻¹ | – | – | – | < 1e-05 s⁻¹ | – | –
34 | A39G G66U | 0.00533 ± 0.00016 s⁻¹ | 0.00285 ± 0.0009 s⁻¹ | 0.00451 ± 0.00097 s⁻¹ | 0.000107 ± 1.9e-05 s⁻¹ | – | 0.00133 ± 0.00029 s⁻¹ | 1960 ± 79 µM
35 | G40A U47A | 0.00464 ± 0.00058 s⁻¹ | 0.0033 ± 0.00065 s⁻¹ | 0.00398 ± 0.00077 s⁻¹ | 0.000132 ± 2.1e-05 s⁻¹ | – | 0.00126 ± 0.00024 s⁻¹ | 1440 ± 270 µM
36 | G41A U47G | 0.00145 ± 0.00012 s⁻¹ | 0.000656 ± 0.00011 s⁻¹ | 0.00104 ± 0.00017 s⁻¹ | – | 6.46e-05 ± 2.1e-05 s⁻¹ | 0.00021 ± 4e-05 s⁻¹ | 3540 ± 470 µM
37 | A42U U47A | 0.00012 ± 2.9e-06 s⁻¹ | 8.23e-05 ± 1.3e-05 s⁻¹ | 0.000106 ± 1.7e-05 s⁻¹ | – | – | 4.11e-05 ± 1.2e-05 s⁻¹ | 1210 ± 91 µM
